Data taken from the DeepSol protein solubility set.

Experiment: soluble on expression in E. coli; label from the status in PepcDB or PDB records
In the case of “MSLKGYPFLDKANAPFVDRHVTKAGEIFYPWDGKRIDGFGLIGAPLSKSSISHSGASFAPTVIRKCLHAFSTYSVEEDLDLAQLKLTDLGDITMHVTDIVGSQARIEETMTKLLENEQNWQPIVLGGDHSISFPSIKAFASAKGTIGVIQFDAHHDLRNLEDGGPCNGTPFRSLLETGSLVGEHLVQIGIRDFSNSYPYRKYAEKHGVKVYTMKDVNARGLLTILDEAVAKLKRSVDVIYVSVDMDVLDQAHAPGCPAIGPGGMDSTTLLQGIFHLGKDSLVQGMDIVEVDPTLDFREMTSRAAAHVILNYLKGKCIKSEGHHHHHH”, the “soluble on expression in E. coli” value is reported as “soluble”. For “MSQPIYKRILLKLSGEALQGEDGLGIDPAILDRMAVEIKELVEMGVEVSVVLGGGNLFRGAKLAKAGMNRVVGDHMGMLATVMNGLAMRDSLFRADVNAKLMSAFQLNGICDTYNWSEAIKMLREKRVVIFSAGTGNPFFTTDSTACLRGIEIEADVVLKATKVDGVYDCDPAKNPDAKLYKNLSYAEVIDKELKVMDLSAFTLARDHGMPIRVFNMGKPGALRQVVTGTEEGTTICLEHHHHHH”, the “soluble on expression in E. coli” value was “not soluble”. In the case of “SENVGKKYFMSSVRRMPLNRAKALCSELQGTVATPRNAEENRAIQNVAKDVAFLGITDQRTENVFEDLTGNRVRYTNWNEGEPNNVGSGENCVVLLTNGKWNDVPCSDSFLVVCEFSD”, the “soluble on expression in E. coli” value is reported as “soluble”. With “MAHHHHHHSLKQKNAYNRLTNHYDDVLTGRKWWSWLYMHCLWKTDDNIIAGSVLDMIPGNFEGRILDVPVGTAIFTYDKYRRMPQAEIVGLDYSQEMLDIAAMRFSAEQITNVSLRQGDVGSLPFPDAAFDLVLSMNGFHVFPDKDRAFAETFRVLRGGGLFCGCFYVKGERKPADWFVRKFLDKKGLFRPPHYTREEAIEKLRSLYGDNVEIQDARSLLVFKCTKPREG” the “soluble on expression in E. coli” value was “soluble”. With “MGSDKIHHHHHHALEENKEAKSLLEGIWLDDNTETALLRVKGDTLFYADAATAPVAFKIIGDSLITYGARTNGYKIEKQGEHIFWFHSAVGDVIRLHKSDTENDSLAFIHTREIPVYNEVIKKDSVVTYDNVRYRGYVYINPSKIKVMRPGVSEEGLGVDNVYYDNIIHICVYEGRKSLYAKDITKQMFKGVVPDDFLQWAILSDMDFMGVDSKGYHYQATVCIPDGASCYMVNITAGKDGGLAFELVR” the “soluble on expression in E. coli” value was “not soluble”. For “MSLSYEYFPGFYDRLMDSELYDEWLEFSADFIGDTSKKVLDLACGTAEFALRLSFLGHQVTGVDLSKEMVAVAKEKVAAAEINLSILEQDMSKLALNQTFDVITCFCDSLNYLETEQALENTIKAVSDHLTPNGLFLFDVHSVFKIDQGFKDYSYGDSDEEISIIWNSFPGEYPHSVEHELTFYILGEDNMYNRVDELHKERTYPITTYKELLKKYGFSKIDVYADFSHENPTNSSERIFFVARKEGHHHHHH”, the “soluble on expression in E. coli” value was “soluble”. With “MSLHDLLMIDGLQYSNWSQDIFQQMQAGGLSAVHATIAYHENARETLSRLGEWNRRFETWPELIRPVRTASDIRLAHEEGRVGIFFGFQNCSPIEDDIALVEVFRQLGVFVMQLTYNNQSLLASGCYEREDNGISRFGRQVIAEMNRVGMLIDMSHSAERSTLEAIELSSRPVIISHANPASFHAAKRNKSDAVLRGIAESGGLLGFSTYPFHLKGASDCSLESFCDMVARTADLMGVEHIGIGTDLCQAQPLSVLEWMRNGRWSKDKDYGEGSRDNANWPAPLQWFRDSRDLRNIAQGLRARGFAEHDVGNIMGLNWLRLLETATTAQAEGHHHHHH” the “soluble on expression in E. coli” value was “soluble”. For “MLNIIRAGIYTSVQDSGRHGFRQSGLSHCGALDKPAFQTANLLVGNDANAPALEITLGQLVVEFENETWFALTGAGCEAQLDDQPVWTGWRLPVKAGQRLTLHRPLHGMRSYLAVAGGIAVPEVMGSYSTDLKSGIGGLEGRLLKDGDRLATGKPSRQFSGPQGVKQLLWGNRIRALPGPEYREFDRASQEAFWRSPWQLSPQSNRMGYRLQGQSLTRTTDRELLSHGLLPGVVQVPYNGQPIVLMNDAQTTGGYPRIACIIEADMYHLAQIPLGQPIHFVQCSLEEALNARRERQRYLEQLTWRLQHEHLEHHHHHH”, the “soluble on expression in E. coli” value was “not soluble”. In the case of “MSGDRDDPRYPYPKDDAELRRRLTPMQYEVTQHAATEPPFTGEYTDTEDAGIYHCVVCGTALFESGAKYHSGCGWPSYFKPIDGEVIDEKMDYTHGMTRVEVRCNQCGAHLGHVFEDGPRDKTGLRYCINSAALNFEAKPERK”, the “soluble on expression in E. coli” value is reported as “not soluble”. For “AAKRMKKRIKSATFFTTLLDFSQPGEVGAYINDTIISAIETQNNAKGYMDGRSLSVTFSLLRENSLYWNYYVDNYLKGNSPVDFDLLYWNSDSTNVSAASHNFLLRELYLENKLVQDKGVKIGGVWIDLNKIKIPSYFVSTKEDHIALWQGTYRGALHTGGNKTFVLGESGHIAGIVNHPAKNKYGYWLNDTLDDS”, the “soluble on expression in E. coli” value was “not soluble”. In the case of “GPGSMKKTVEDRSLEFLIRRRNDAELPPLASLSCKHLKQHHWRDAFDDEQAALREQLWAVKTQLDVIPAETYTATRNKLFPLAASGEQRNFSNRAGHKLLESMESTGVWMELSKLLRGKSTKRPRDFAFADVCGGPGAFSQALFQAGRKRGWRHLHGYGMTLAGVSGLDWYAHLLKSPQFTCTYGLDGTGDIFKLSNIDCLASITKAAPMFLVVADGGFNVDFSVTNYQETISSRIMYGQWLAALKLLRKGGCFVLKLFDTFSPLSRAVLYLSCCMYRRVHVAKPRHSRVVNSERYLVCVDFLGYPSEGWSRYLDSFYEVGFVDNEHVPQLIPREWCLQDAVFMADVRDMNTAVATNQVIALQMILDAAPAMTEELKAKTIEKKPAAGSDDGRTPPPDEGGDGE”, the “soluble on expression in E. coli” value is reported as “not soluble”. For “MGSDKIHHHHHHMDKFLYISMSGAKQNMNELALRANNLANANTDGFKSDMAQARSMQAFGEGLPTRVFAMVETPSANFRSGPIKSTGRDLDVAIKGDGWFAVQAQDGSEAYTRSGSLSFDSTGLLHNDRGNPVMGDAGPIVLPLPIEKVTISQDGIISVRPQGATTEVVEEVGRLKLVNPGNAQMMRGEDGLFRLVSGDPAPADPSVSVESGAVEGSNVNSVDEMVSLIDLQRQFELQVKMMKTAEENDRASSSLMRIS”, the “soluble on expression in E. coli” value was “not soluble”. For “MQQYIGIDVGGTHVKYGVINSDGEELTHHQFDTPEDASTFTRKWQDVVARCQQDYDIAAIGVSFPGHINPHNGHAAKAGALAYLDDVNLMELFSGLTDLPLVVENDANCAALGEMWRGAGQHYENMVCITIGTGIGGGIIVGRELYRGAHFHAGEFGVMPVGNNGESMHKIASTSGLMASCRQALALPAEEMPPADVIFERMATDVHLREAVNDWARYLSRGVYSVISMFDPGVVLIGGGISEQEKLYPLLTRHLETFEMWEALQVPIQPCQLGNQAGRLGAVWLAQQKLDRG”, the “soluble on expression in E. coli” value was “not soluble”. For “MLYLHDIWVNWFEGEENGYNVCHFHEWRKDDQIELLDQVPLLKVSPALFHYIENSLSDLPKPLLDDVHQKAYVRKNHERIQLDYCFVVTDGAGVLAVDTIGYQIPIRKSRLIPRQEQLVYEMAAEAEERDYPLPRYEKEYHILSPAPELMCGLTRKERQLKQLLFMALDQLYSTKNTAQMRYWYTEWAPEKYAAIQKMSFDEAWEQLYNETKYGWSERHEQLCENLIKGQPFFEKLWEMEQEPKVN”, the “soluble on expression in E. coli” value was “soluble”. For “MMVIGRLGAGKSFATKLRLVRRAMFDEDTVVIMLDPMRGFAGVNEALDGERITVGGRRGLNPLEIKPTPDHVLQEVDDIDPWGEQINWVMTFFATFFEHVADHPLGERNQTLRRAVQEAYEKRGITRDPETHTRDSPTIHDVITVLEEMVEDPEEYGYVTDGEQEAVQSDAQSLLKDLRPSFREGGELENLARPSEFDLDSKVIYLDLHQEEGTRGRAETSLMMQVLFNSVYERVKQTDKRVVFCIDEAHYLMNDAVSLDFLETAVRHSRHFDLSLEFITQTGGEFALTPEARTIANLCSLTVLHRVNEEKEKIAKWF”, the “soluble on expression in E. coli” value was “not soluble”. For “MGSDKIHHHHHHMELCTTICVDLAKQVFQLAGEDATGRVIYEDRIKSRQAFHDFLLRLPTTVAVLMECGPGAQAWARLLQAKGNPVRILPAQRVAEHRSGAKNDRNDCYAILRAGRDTSIASIPIKSTTALAIQALHRIRRGNIKRHTALGNQIRGLLLEHGVSMPQGDAAINKHVPRALEDASLPLPDLLRELLDELLMDWLSLGERITALSRRLEATAQEDKVAQRLITIRGVGPIIATAIVAKQTDPSRFASGRMYSAFFGIVPDQHSSGNKIRLGKMSKRGDGYIRSLMIQGAHSVLSQLRPDSDQPDDRRLLRWLSRLGRKEAAIRLANRNLRIIWALLQSDQVYQRKPNEKPEAAMSL”, the “soluble on expression in E. coli” value was “not soluble”.
